This test addresses T1, factor H (human (endogenous in normal human serum), UniProt P08603 19-1231).
T1 construct: complement factor H; also called FH
As to the kind of experiment: ELISA; proteins coated (G3 fragments 5 µg/ml, fibromodulin 2.5 µg/ml); heat-inactivated normal human serum diluted in 50 mM Hepes pH 7.4, 150 mM NaCl, 2 mM CaCl2, 50 µg/ml BSA; 1 h at RT; detected with anti-FH. Particulars: one partner purified.

T1 sequence (P08603 19-1231): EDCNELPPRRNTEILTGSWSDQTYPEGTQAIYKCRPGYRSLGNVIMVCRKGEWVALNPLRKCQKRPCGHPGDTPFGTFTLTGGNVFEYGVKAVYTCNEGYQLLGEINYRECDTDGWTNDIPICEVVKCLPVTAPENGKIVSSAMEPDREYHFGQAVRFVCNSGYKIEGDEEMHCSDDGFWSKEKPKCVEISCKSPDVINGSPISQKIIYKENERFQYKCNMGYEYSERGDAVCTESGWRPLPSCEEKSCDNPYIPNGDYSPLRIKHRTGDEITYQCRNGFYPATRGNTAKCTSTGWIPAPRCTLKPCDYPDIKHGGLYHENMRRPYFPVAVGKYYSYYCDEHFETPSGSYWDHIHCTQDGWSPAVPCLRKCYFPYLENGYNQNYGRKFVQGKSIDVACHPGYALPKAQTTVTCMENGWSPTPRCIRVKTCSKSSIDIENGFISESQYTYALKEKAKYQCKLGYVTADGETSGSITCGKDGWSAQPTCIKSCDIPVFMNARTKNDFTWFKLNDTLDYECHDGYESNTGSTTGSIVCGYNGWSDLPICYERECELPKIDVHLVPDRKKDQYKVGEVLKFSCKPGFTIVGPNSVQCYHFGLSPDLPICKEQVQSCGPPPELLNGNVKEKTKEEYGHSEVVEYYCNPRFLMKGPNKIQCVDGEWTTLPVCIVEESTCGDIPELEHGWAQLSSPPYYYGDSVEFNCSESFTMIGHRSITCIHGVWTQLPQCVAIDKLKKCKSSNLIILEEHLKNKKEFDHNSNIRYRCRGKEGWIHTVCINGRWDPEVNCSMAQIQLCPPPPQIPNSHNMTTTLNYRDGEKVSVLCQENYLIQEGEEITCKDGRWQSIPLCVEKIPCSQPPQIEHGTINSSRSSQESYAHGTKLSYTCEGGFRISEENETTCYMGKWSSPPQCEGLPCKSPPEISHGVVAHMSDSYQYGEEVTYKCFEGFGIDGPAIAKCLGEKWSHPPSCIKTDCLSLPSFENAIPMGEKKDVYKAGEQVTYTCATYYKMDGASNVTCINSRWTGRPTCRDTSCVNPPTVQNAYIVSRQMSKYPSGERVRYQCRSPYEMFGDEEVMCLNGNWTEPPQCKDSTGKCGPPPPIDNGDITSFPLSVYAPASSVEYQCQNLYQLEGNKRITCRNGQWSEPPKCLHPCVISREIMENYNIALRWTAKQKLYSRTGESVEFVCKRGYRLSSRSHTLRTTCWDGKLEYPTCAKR

B1: recombinant bovine fibromodulin (natural protein, UniProt P13605 19-376, looked up)
chain: QYEEDSHWWFQFLRNQQSTYDDPYDPYPYEPYEPYPYGGEEGPAYAYGSPPQPEPRDCPQECDCPPNFPTAMYCDNRNLKYLPFVPSRMKYVYFQNNQISSIQEGVFDNATGLLWIALHGNQITSDKVGKKVFSKLRHLERLYLDHNNLTRIPSPLPRSLRELHLDHNQISRVPNNALEGLENLTALYLHHNEIQEVGSSMKGLRSLILLDLSYNHLRKVPDGLPSALEQLYLEHNNVFSVPDSYFRGSPKLLYVRLSHNSLTNNGLASNTFNSSSLLELDLSYNQLQKIPPVSTNLENLYLQGNRINEFSISSFCTVVDVMNFSKLQVLRLDGNEIKRSAMPADAPLCLRLASLIEI
notes: fibromodulin, bovine; source: recombinant
For the molecule B1, the binding result is on record as “binds”.

The values are drawn from publication PMC3626604, “The C-Type Lectin of the Aggrecan G3 Domain Activates Complement” (PLoS ONE, 2013).
